In publication PMC6534540:

Target: N-term biotinylated candidalysin (Candida albicans)
Assay: SPR; Biacore T100; N-term biotinylated candidalysin captured (up to 1000 RU) on neutravidin coupled to a CM5 chip, free sites blocked with PEG-biotin; EGFR domains injected at 250, 500, 1000 and 2000 nM at 10 µL/min; HBS-EP buffer (10 mM HEPES pH 7.4, 150 mM NaCl, 3 mM EDTA, 0.005% Surfactant P20); 25 °C; neutravidin-only reference cell

Chain of N-term biotinylated candidalysin (Candida albicans) (Q07730 62-92): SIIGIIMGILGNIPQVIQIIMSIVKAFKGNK

## EGFR transmembrane portion (domain or fragment)
  SPR signal response: < 50 RU
